Where a chain is given by its changes, count along the chain named. Numbered stars: 1 amine (or outer) side, 2 acyl side, 3 side chain; on linkers, the order of the positions; unused ones are H or OH. Square brackets hold non-standard residues; d marks the D form. Side chains are listed from the residue outwards. Ends that are not written are not given here. * marks the point of attachment. C20 diacid = O=C(O)CCCCCCCCCCCCCCCCCCC(=O)*; γGlu = O=C(O)[C@H](CCC(=O)[*:2])N[*:1]; AEEA = NCCOCCOCC(=O)O; Aib = CC(C)(N)C(=O)O
B1: Example 259 (peptide)
peptide: Y[Aib]EGTFTSDYSILLDEK([AEEA-AEEA-γGlu-C20 diacid])AQ[Aib]AFIEYLIEGGPSSGAPPPS-NH2
modifications: N-terminus assumed
SMILES: CC[C@H](C)[C@H](NC(=O)[C@H](CC(C)C)NC(=O)[C@H](Cc1ccc(O)cc1)NC(=O)[C@H](CCC(=O)O)NC(=O)[C@@H](NC(=O)[C@H](Cc1ccccc1)NC(=O)[C@H](C)NC(=O)C(C)(C)NC(=O)[C@H](CCC(N)=O)NC(=O)[C@H](C)NC(=O)[C@H](CCCCNC(=O)COCCOCCNC(=O)COCCOCCNC(=O)CC[C@H](NC(=O)CCCCCCCCCCCCCCCCCCC(=O)O)C(=O)O)NC(=O)[C@H](CCC(=O)O)NC(=O)[C@H](CC(=O)O)NC(=O)[C@H](CC(C)C)NC(=O)[C@H](CC(C)C)NC(=O)[C@@H](NC(=O)[C@H](CO)NC(=O)[C@H](Cc1ccc(O)cc1)NC(=O)[C@H](CC(=O)O)NC(=O)[C@H](CO)NC(=O)[C@@H](NC(=O)[C@H](Cc1ccccc1)NC(=O)[C@@H](NC(=O)CNC(=O)[C@H](CCC(=O)O)NC(=O)C(C)(C)NC(=O)[C@@H](N)Cc1ccc(O)cc1)[C@@H](C)O)[C@@H](C)O)[C@@H](C)CC)[C@@H](C)CC)C(=O)N[C@@H](CCC(=O)O)C(=O)NCC(=O)NCC(=O)N1CCC[C@H]1C(=O)N[C@@H](CO)C(=O)N[C@@H](CO)C(=O)NCC(=O)N[C@@H](C)C(=O)N1CCC[C@H]1C(=O)N1CCC[C@H]1C(=O)N1CCC[C@H]1C(=O)N[C@@H](CO)C(N)=O
B2: Example 359 (peptide)
peptide: XXEGTFTSDYSIXLDXKAQXEFVEYLIAGGPSSGAPPPS
modifications: D-Tyr1, Aib2, αMeL13, Orn16, (2-[2-(2-Amino-ethoxy)-ethoxy]-acetyl)2-(γ-Glu)-CO-(CH2)18-CO2H on K17, Aib20, C-terminal NH2
B3: Example 258 (peptide)
peptide: Y[Aib]EGTFTSDYSILLDEK([AEEA-AEEA-γGlu-C20 diacid])AQKAFIEYLIEGGPSSGAPPPS-NH2
modifications: N-terminus assumed
SMILES: CC[C@H](C)[C@H](NC(=O)[C@H](CC(C)C)NC(=O)[C@H](Cc1ccc(O)cc1)NC(=O)[C@H](CCC(=O)O)NC(=O)[C@@H](NC(=O)[C@H](Cc1ccccc1)NC(=O)[C@H](C)NC(=O)[C@H](CCCCN)NC(=O)[C@H](CCC(N)=O)NC(=O)[C@H](C)NC(=O)[C@H](CCCCNC(=O)COCCOCCNC(=O)COCCOCCNC(=O)CC[C@H](NC(=O)CCCCCCCCCCCCCCCCCCC(=O)O)C(=O)O)NC(=O)[C@H](CCC(=O)O)NC(=O)[C@H](CC(=O)O)NC(=O)[C@H](CC(C)C)NC(=O)[C@H](CC(C)C)NC(=O)[C@@H](NC(=O)[C@H](CO)NC(=O)[C@H](Cc1ccc(O)cc1)NC(=O)[C@H](CC(=O)O)NC(=O)[C@H](CO)NC(=O)[C@@H](NC(=O)[C@H](Cc1ccccc1)NC(=O)[C@@H](NC(=O)CNC(=O)[C@H](CCC(=O)O)NC(=O)C(C)(C)NC(=O)[C@@H](N)Cc1ccc(O)cc1)[C@@H](C)O)[C@@H](C)O)[C@@H](C)CC)[C@@H](C)CC)C(=O)N[C@@H](CCC(=O)O)C(=O)NCC(=O)NCC(=O)N1CCC[C@H]1C(=O)N[C@@H](CO)C(=O)N[C@@H](CO)C(=O)NCC(=O)N[C@@H](C)C(=O)N1CCC[C@H]1C(=O)N1CCC[C@H]1C(=O)N1CCC[C@H]1C(=O)N[C@@H](CO)C(N)=O
B4: Example 260 (peptide)
peptide: Y[Aib]EGTFTSDHSILLDKK([AEEA-AEEA-γGlu-C20 diacid])AQ[Aib]AFIEYLIEGGPSSGAPPPS-NH2
modifications: N-terminus assumed
SMILES: CC[C@H](C)[C@H](NC(=O)[C@H](CC(C)C)NC(=O)[C@H](Cc1ccc(O)cc1)NC(=O)[C@H](CCC(=O)O)NC(=O)[C@@H](NC(=O)[C@H](Cc1ccccc1)NC(=O)[C@H](C)NC(=O)C(C)(C)NC(=O)[C@H](CCC(N)=O)NC(=O)[C@H](C)NC(=O)[C@H](CCCCNC(=O)COCCOCCNC(=O)COCCOCCNC(=O)CC[C@H](NC(=O)CCCCCCCCCCCCCCCCCCC(=O)O)C(=O)O)NC(=O)[C@H](CCCCN)NC(=O)[C@H](CC(=O)O)NC(=O)[C@H](CC(C)C)NC(=O)[C@H](CC(C)C)NC(=O)[C@@H](NC(=O)[C@H](CO)NC(=O)[C@H](Cc1c[nH]cn1)NC(=O)[C@H](CC(=O)O)NC(=O)[C@H](CO)NC(=O)[C@@H](NC(=O)[C@H](Cc1ccccc1)NC(=O)[C@@H](NC(=O)CNC(=O)[C@H](CCC(=O)O)NC(=O)C(C)(C)NC(=O)[C@@H](N)Cc1ccc(O)cc1)[C@@H](C)O)[C@@H](C)O)[C@@H](C)CC)[C@@H](C)CC)C(=O)N[C@@H](CCC(=O)O)C(=O)NCC(=O)NCC(=O)N1CCC[C@H]1C(=O)N[C@@H](CO)C(=O)N[C@@H](CO)C(=O)NCC(=O)N[C@@H](C)C(=O)N1CCC[C@H]1C(=O)N1CCC[C@H]1C(=O)N1CCC[C@H]1C(=O)N[C@@H](CO)C(N)=O
B5: Example 247 (peptide)
peptide: YXEGTXTSDYSIXLDXKAQXEFIXYLIEGGPSSGAPPPS
modifications: Aib2, αMeF(2F)6, Aib13, Orn16, (2-[2-(2-Amino-ethoxy)-ethoxy]-acetyl)2-(γ-Glu)-CO-(CH2)16-CO2H on K17, Aib20, D-Glu24, C-terminal NH2
B6: Example 250 (peptide)
peptide: B5 peptide
modifications: Aib2, αMeF(2F)6, Aib13, Orn16, (2-[2-(2-Amino-ethoxy)-ethoxy]-acetyl)2-(γ-Glu)-CO-(CH2)18-CO2H on K17, Aib20, D-Glu24, C-terminal NH2
B7: Example 336 (peptide)
peptide: B5 peptide with Y1X, X16K, E21A, X24E
modifications: not fully specified; D-Tyr1, Aib2, αMeF(2F)6, αMeL13, (2-[2-(2-Amino-ethoxy)-ethoxy]-acetyl)2-(γ-Glu)-CO-(CH2)18-CO2H on K17, Aib20, C-terminal NH2
B8: Example 248 (peptide)
peptide: B5 peptide with X13L
modifications: Aib2, αMeF(2F)6, Orn16, (2-[2-(2-Amino-ethoxy)-ethoxy]-acetyl)2-(γ-Glu)-CO-(CH2)16-CO2H on K17, Aib20, D-Glu24, C-terminal NH2
B9: Example 249 (peptide)
peptide: B5 peptide
modifications: Aib2, αMeF(2F)6, Nle13, Orn16, (2-[2-(2-Amino-ethoxy)-ethoxy]-acetyl)2-(γ-Glu)-CO-(CH2)16-CO2H on K17, Aib20, D-Glu24, C-terminal NH2
B10: Example 264 (peptide)
peptide: YXEGTXTSDXSIXLDXKAQXEFIXXLIEGGPSSG
modifications: Aib2, αMeF(2F)6, 4Pal10, αMeF13 (so in the source), Orn16, (2-[2-(2-Amino-ethoxy)-ethoxy]-acetyl)2-(γ-Glu)-CO-(CH2)16-CO2H on K17, Aib20, D-Glu24, αMeY25, C-terminal NH2
B11: Example 253 (peptide)
peptide: YXEGTFTSDYSILLDKKAQAAFIEYLIEGGPSSGAPPPS
modifications: Aib2, (2-[2-(2-Amino-ethoxy)-ethoxy]-acetyl)2-(γ-Glu)-CO-(CH2)18-CO2H on K17, C-terminal NH2
B12: Example 254 (peptide)
peptide: B11 peptide with A20Q
modifications: Aib2, (2-[2-(2-Amino-ethoxy)-ethoxy]-acetyl)2-(γ-Glu)-CO-(CH2)18-CO2H on K17, C-terminal NH2
B13: Example 261 (peptide)
peptide: B11 peptide with A20E
modifications: Aib2, (2-[2-(2-Amino-ethoxy)-ethoxy]-acetyl)2-(γ-Glu)-CO-(CH2)18-CO2H on K17, C-terminal NH2
B14: Example 255 (peptide)
peptide: B11 peptide with A20H
modifications: Aib2, (2-[2-(2-Amino-ethoxy)-ethoxy]-acetyl)2-(γ-Glu)-CO-(CH2)18-CO2H on K17, C-terminal NH2
B15: Example 263 (peptide)
peptide: B11 peptide with A20S
modifications: Aib2, (2-[2-(2-Amino-ethoxy)-ethoxy]-acetyl)2-(γ-Glu)-CO-(CH2)18-CO2H on K17, C-terminal NH2
B16: Example 257 (peptide)
peptide: B11 peptide with A20R
modifications: Aib2, (2-[2-(2-Amino-ethoxy)-ethoxy]-acetyl)2-(γ-Glu)-CO-(CH2)18-CO2H on K17, C-terminal NH2
B17: Example 262 (peptide)
peptide: B11 peptide with A20T
modifications: Aib2, (2-[2-(2-Amino-ethoxy)-ethoxy]-acetyl)2-(γ-Glu)-CO-(CH2)18-CO2H on K17, C-terminal NH2
B18: Example 256 (peptide)
peptide: B11 peptide with A20K
modifications: Aib2, (2-[2-(2-Amino-ethoxy)-ethoxy]-acetyl)2-(γ-Glu)-CO-(CH2)18-CO2H on K17, C-terminal NH2

Legend:
[1] = molecular target: T1, human gastric inhibitory peptide receptor (GIPR) (human, UniProt P48546 22-466); experiment: cell-based or functional assay
T1 sequence (looked up): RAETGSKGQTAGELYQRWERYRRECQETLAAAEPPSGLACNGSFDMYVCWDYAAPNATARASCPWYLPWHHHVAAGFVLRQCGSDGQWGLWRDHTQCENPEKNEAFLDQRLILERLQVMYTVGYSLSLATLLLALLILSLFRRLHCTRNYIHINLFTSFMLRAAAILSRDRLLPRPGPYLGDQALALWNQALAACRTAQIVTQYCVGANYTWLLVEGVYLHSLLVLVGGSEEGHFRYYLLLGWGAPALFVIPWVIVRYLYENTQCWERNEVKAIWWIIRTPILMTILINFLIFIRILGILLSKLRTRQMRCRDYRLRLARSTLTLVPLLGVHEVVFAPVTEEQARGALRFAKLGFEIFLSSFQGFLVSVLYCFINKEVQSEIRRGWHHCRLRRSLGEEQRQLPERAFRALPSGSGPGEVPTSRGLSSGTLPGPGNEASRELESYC

[2] = molecular target: human GLP-1 receptor (GLP-1R) (human, UniProt P43220 24-463); experiment: cell-based or functional assay

Binder | hGIPR cAMP EC50 ratio [1] | hGIPR cAMP Rel EC50 [1] [pM] | hGLP1R cAMP EC50 ratio [2] | hGLP1R cAMP Rel EC50 [2] [pM]
B1 | 0.582 | 257 | 0.482 | 145
B2 |  | 172 |  | 
B3 | 0.0616 | 2430 | 0.401 | 174
B4 | 0.242 | 617 | 0.171 | 408
B5 | 2.58 | 62.2 | 0.614 | 49.1
B6 | 4.27 | 37.6 | 0.985 | 30.6
B7 |  | 31.2 |  | 
B8 | 5.08 | 32.8 | 0.8 | 42.8
B9 | 3.84 | 43.7 | 0.778 | 44.6
B10 | 8.4 | 19.6 | 3.19 | 22.9
B11 | 0.684 | 219 | 0.638 | 109
B12 | 0.695 | 215 | 1.26 | 55.3
B13 | 0.936 | 160 | 0.75 | 94.8
B14 | 1.47 | 102 | 1.71 | 40.7
B15 | 0.473 | 317 | 0.906 | 78.5
B16 | 0.316 | 474 | 0.895 | 77.9
B17 | 1.15 | 130 | 0.754 | 94.3
B18 | 0.233 | 643 | 1.38 | 50.6
